Five molecules from patent publication US20140308707A1, “METHOD FOR PRODUCTION OF FACTOR VIII” (Novo Nordisk A/S, priority 2011, published 2014) can be followed below.

Test [1] deals with CHO DUKX B11 cells stably expressing BDD-FVIII. The test is described as follows: FVIII membrane displacement cell cultures (additives in culture medium, culture fluid and membrane bound fraction assayed). Format: cell-based. Particulars: 24 hours, serum free medium, OPLS 20 mM, F8 LC 1.38 μM, Lactadherin 0.15 μM, unit from b101. The procedure: The additives mentioned below (lactadherin, Factor VIII light chain and/or OPLS) were added to the culture medium and the cells were incubated for 24 hours following assaying of the culture fluid and the membrane bound fraction.

The test system of test [2] is cell membrane of HEK293 cells. As to the kind of experiment: Homologous competition assay: binding of 125I-BDD-FVIII to the cell membrane with blocking agents. Particulars: for % of total binding: 0.5 nM 125I-FVIII, 4° C., 2 hours, Annexin V 500 nM, OPLS 20 mM, Heparin 100 ug/mL, RAP 500 nM; for reduction of membrane attached FVIII: same experiment as Table 2. The procedure: The affinity of purified B-domain deleted factor VIII (BDD-FVIII) (kindly provided by J. Karlsson and L. Thim, Novo Nordisk A/S) to the cell membrane of HEK293 cells was investigated by a homologous competition assay using ^125I-BDD-FVIII and unlabelled BDD-FVIII. Cells were washed once in PBS+1% BSA. 5×10^5 cells were distributed to a microtiter well and the plate was cooled to 4° C. During blocking of the cell surface, binding of BDD-FVIII was examined. A constant concentration of ^125I-FVIII (0.5 nM) was added simultaneously with either Annexin V (0.5 μM, Sigma), Ortho-Phospho-L-serine (20 mM, Sigma), Heparin (100 μg mL-1, Leo Pharmaceuticals), and Receptor Associated Protein (RAP) 0.5 μM (kindly provided by H. H. Petersen, Novo Nordisk A/S) at 4° C. to prevent endocytosis.
The plate was incubated at 4° C. for 2 hours with gentle shaking. After centrifugation unbound (non-membrane attached) ^125I-FVIII was removed and cells were washed twice in ice-cold assay buffer (10 mM HEPES, 150 mM NaCl, 4 mM KCl, 11 mM glucose, 5 mM CaCl2, 1 mg ml^−1 BSA, pH 7.4). Surface bound ^125I-FVIII was counted on a gamma-counter. The experiments were performed twice in triplicate. Non-specific binding was estimated in the presence of 12000× excess of unlabeled BDD Factor VIII.
In an attempt to determine potent inhibitors of the cell membrane interaction, four proteins known for their specific effect in either: 1) blocking phosphatidylserine (annexin V), 2) interacting with the C2 domain of FVIII (OPLS), 3) interacting with receptors that facilitate internalisation followed by degradation such as LRP (Lipoprotein receptor-related protein) and HSPGs (heparin sulphate proteoglycans) were tested (RAP, heparin).

In test [3] the test system is HKB11 cells. As to the kind of experiment: Transient co-expression with F8, Factor VIII:Ag ELISA. The class given is cell-based. The procedure: (§1) HEK293 cells were maintained in commercial FreeStyle medium supplemented with 50 U/mL penicillin and 50 ug/mL streptomycin. Cells were grown as suspension cells in shakers and incubated at 37° C. under 5% CO2 and 95% relative humidity conditions.
(§2) Cells were seeded at a density of 3×10^5 cells/mL and passaged every 3-4 days. For transfection experiments the cell culture was scaled up until the target density was reached. Viable and total cell concentrations were evaluated by Cedex (Innovartis) analysis. The instrument uses image analysis software for automated cell counting and viable cells were identified based on their ability to exclude trypan blue.
(§3) Plasmid DNA was transfected into HKB11 cells by 293 fectin following the manufacturer's recommendations. Conditioned medium was harvested on indicated days following gentle centrifugation of the suspension culture. The cell pellet was resuspended in FreeStyle medium containing 0.5M NaCl and after gentle centrifugation, a sample, representing the FVIII attached to the cell membrane was taken. Samples were stored at −80° C. until analysis.
(§4) FVIII coagulation activity was measured by a two-stage chromogenic assay (Coamatic Factor VIII analysis kit, Chromogenix). Factor VIII:Ag assay was performed using polyclonal antibodies from Affinity Biologicals (F8C-EIA). Both assays were done following the manufactures instructions and with in-house B-domain deleted affinity purified Factor VIII as standard.
A general note: In an ELISA, binding on a coated surface is turned into a signal by an enzyme label.

Test [4] relates to HKB11 cells. The test is described as follows: Transient co-expression with F8, FVIII coagulation activity (two-stage chromogenic assay, coa). The class given is cell-based. Particulars: for displacement of F8 from the cell surface into the supernatant: in words. The protocol:
as §1, §2, §3, §4

Where “and” joins values, the source holds several entries; their conditions need not be identical. Identical values can stand only once.

As for `N[C@@H](COP(=O)(O)O)C(=O)O` [OPLS, Ortho-Phospho-L-serine, reference compound], in test [1], the “supernatant average (activity of FVIII in the culture medium)” value was 6000 mU/mL and 6347 mU/mL; the “wash average (FVIII activity on the membrane)” value amounted to 1691 mU/mL. Besides, in test [2], the “% of total binding” value was determined as 68.4% and the “reduction of membrane attached FVIII” value is on record as roughly 30%.

With Heparin, in test [2], the “% of total binding” value was 86.8% and the “reduction of membrane attached FVIII” value is given as “small but not significant effect”.

For RAP: Receptor Associated Protein (RAP), in test [2], the “% of total binding” value is reported as 106.6% and the “reduction of membrane attached FVIII” value is “no effect”.

B1: Lactadherin: lactadherin, agent that binds to phosphatidylserine; added to medium or co-expressed with F8 (protein)
chain: LDICSKNPCHNGGLCEEISQEVRGDVFPSYTCTCLKGYAGNHCETKCVEPLGMENGNIANSQIAASSVRVTFLGLQHWVPELARLNRAGMVNAWTPSSNDDNPWIQVNLLRRMWVTGVVTQGASRLASHEYLKAFKVAYSLNGHEFDFIHDVNKKHKEFVGNWNKNAVHVNLFETPVEAQYVRLYPTSCHTACTLRFELLGCELNGCANPLGLKNNSIPDKQITASSSYKTWGLHLFSWNPSYARLDKQGNFNAWVAGSYGNDQWLQVDLGSSKEVTGIITQGARNFGSVQFVASYKVAYSNDSANWTEYQDPRTGSSKIFPGNWDNHSHKKNLFETPILARYVRILPVAWHNRIALRLELLGC
modifications: homo sapiens
notes: added to medium or co-expressed with F8
For the molecule B1, the “FVIII ELISA, supernatant” value in test [3] (harvest day 3, supernatant) amounted to 530 ± 113 ng/mL; in test [3] (harvest day 4, supernatant), 270 ± 54 ng/mL; in test [3] (harvest day 5, supernatant), 108 ± 119 ng/mL. For the same molecule, the “FVIII ELISA, wash” value in test [3] (harvest day 3, wash) was 67 ± 0 ng/mL; in test [3] (harvest day 4, wash), 278 ± 37 ng/mL; in test [3] (harvest day 5, wash) it was 287 ± 33 ng/mL. The entries for the “supernatant average (activity of FVIII in the culture medium)” value in test [1] and in test [1] (listed as lactadherin) were 8085 mU/mL and “further increases the amount of FVIII in the culture medium”, respectively. In addition, the “wash average (FVIII activity on the membrane)” value is given as 1406 mU/mL in test [1] and “a decline in membrane bound FVIII is observed” in test [1] (listed as lactadherin). Also, the “displacement of F8 from the cell surface into the supernatant” value in test [4] (day 3, viability ~90%) is “effectively displacement”; in test [4] (day 4, viability ~80%), “could no longer keep F8 in the supernatant”. Besides, the “coa, supernatant” value is listed as 5448 +/− 122 mU/ml in test [4] (harvest day 3, supernatant); 1044 +/− 425 mU/ml in test [4] (harvest day 4, supernatant); 327 +/− 13 mU/ml in test [4] (harvest day 5, supernatant). In addition, the “coa, wash” value in test [4] (harvest day 3, wash (0.5M NaCl, membrane attached FVIII)) is recorded as 640 +/− 116 mU/ml; in test [4] (harvest day 4, wash (0.5M NaCl, membrane attached FVIII)), 3575 +/− 558 mU/ml; in test [4] (harvest day 5, wash (0.5M NaCl, membrane attached FVIII)) it was 3510 +/− 46 mU/ml.

B2: Annexin V: Ca++ dependent phospholipid-binding protein that react with phosphatidylserine (Sigma) (protein)
chain: MAQVLRGTVTDFPGFDERADAETLRKAMKGLGTDEESILTLLTSRSNAQRQEISAAFKTLFGRDLLDDLKSELTGKFEKLIVALMKPSRLYDAYELKHALKGAGTNEKVLTEIIASRTPEELRAIKQVYEEEYGSSLEDDVVGDTSGYYQRMLVVLLQANRDPDAGIDEAQVEQDAQALFQAGELKWGTDEEKFITIFGTRSVSHLRKVFDKYMTISGFQIEETIDRETSGNLEQLLLAVVKSIRSIPAYLAETLYYAMKGAGTDDHTLIRVMVSRSEIDLFNIRKEFRKNFATSLYSMIKGDTSGDYKKALLLLCGEDD
modifications: homo sapiens
As to B2, in test [2], the “% of total binding” value worked out at 28.5% and the “reduction of membrane attached FVIII” value is roughly 70%.
